Data as given in publication PMC7508885.

Tested on: N[C@@H](Cc1ccc(O)cc1)C(=O)O
Experiment: ATP:PPi exchange reaction
Assay type: biochemical, Pseudomonas aeruginosa
Conditions: other: other substrate (Tyr or ATP) held at 2 mM; enzyme 0.4 μM; pH 7.5; 37.0 °C

| Substance | Km [µM] | kcat [s⁻¹] |
| --- | --- | --- |
| P. aeruginosa TyrRS-S (Pseudomonas aeruginosa PAO1) | 172 | 3.8 |
| P. aeruginosa TyrRS-Z (Pseudomonas aeruginosa PAO1) | 29 | 3.1 |
